B1: RNA Editing Helicase 2 (REH2) wild type with TAP tag [T. brucei] / REH2-Associated Factor 1 (^H2F1), endogenous [T. brucei (endogenous in Lister 427 29-13 procyclic cells)] (parent complex)
chain 1: FQTQEITPGEVSLVEATDESDRAFGETRKEDFSFDGSSEFPECFKDTKHVDTFSRARVVSFIKRFSQGAVTSSSEVFEGREIVNDNGTPLYHSRVRLPFRSHTGELWAHGVACNSKDAELLAAMHAEHIIDEFGYHIYTLPSMQRKHAEAARKAGRWAPLPDELERTQSPVRVPLPLRRIVDRDETEGGKWLLIDMRPNHYISPSHTLLSPCLFDTTAVHRIKSFLDEHKLSFAQLCTSVEEPGEGGGQSWYVATVSLPPELSTFSEIKAQGKALNREAAVTLACMHAELVLDAHSICLYPSDSTKQKQHALAAWSYGRPAPLPGEDQKNPSHVVCPLPLKQLAVRREDRISCISYEEDIIRRHRALTDQTCEFIETPTLDSSAVEQLKQFLQRENVPRTDPFLVEEVNGYYKATVVLPLPDLYGIRGGVGIAMNATDARVLAAMHAIDVLNILGFHLMDGSTARAEWIAARRARGESVPADTRDPNVLSPSGRRRVATGNSSTQTPSSSTNARSVAAAPDVGTSDPTAPQNTKRRVAKRARVADAQPTEEKDAANSDSDEATSYLKMRETVSKELWNLEPDSPDGYIMVSPTDPETRTQFEQALYSPRQVDLGSKSRIKNYLASVGRRIEEVFFVQRIEAEDNGGQAICRCAVNLPVPRRFGDRIALGEAVDPKDAENLAAMHAELILDTLGIPIYTDSALQRLHVRLCAKCGRNAPVEYSESVAAATASPPPLRREVVGSIHWENKSKRRRAAISVQKGGGPANSQETTSALREDEEPLIAPKERREYTFVPEKDLDLVSRARVHYYLRRNGIAKLEPEYRMELRGLGNVLHIAELTLPLPDVYGKRVAHGSALTKRDAEILCWMHAEQILDAVGLCLFDNLPMLQRRHVECVKRLGRWAPLVSENATKPPHTPTPLPLTLGTTQEKPQYPTPPTNVRQDWEQYAQECQRYIEINVMREHNIFYEMGKTPRTGDETYDAALAEVESMPIDPDAKTVLQRYCNVANVNYPTFWKSRTVGPISCRVCLTTIEVPGHEYLRASGVAWNKEASQRQAAMHALALLRRVEPDFAEFEKQIKAEVVDKVNLVDPAAVLDEEAPVLRRTARVSKKSLGNWDPVSKDFSHEGKVRIIELFTVCFGLQPPLVRHLNRRSGSFVQHFTVVEVTDEDGKTWVGTGRDAGPRFNEPAAFDDLFSKLSRGVQGFQALMDLIRAHPHLDPEHIANVSLTDSQKERILKAVDGLPMVEEEDVAHPEQWADADSDRGIGIMALIAMDASQRAQESQELEAKLQAKLTNEEYQTRYASQRQRLRIYEKRDEILRAISSNQIVIICGTTGCGKTTQVPQYILDDMTEKGMGGDCSIVITQPRRLSAVSIARRVAAERLESIGETCGYSIRLDAKPGRNINFCTSGVLLRLLHSAPLLNGINYLIIDEIHERDINSDFLLILLRQLLHRRKDLHVILMSATLQADQFGKYFGNAPIINVEGYVHAVEEMYLEDLVPIATERNVMTPLLKEAAAALERNGAADGFCPTVVPPTAKYGFLEATADIDYMTIQIAIDHAVRSLDLTDSSILVFLPGWDEINRAKEILERNAKFHIICLHSSVGAEEQMRCFLPAPEGKIKLILSTNIAESGVTIDDVAAVIDVGRGKEKSYVMRKGTTSVGRNEMGSMSQLVTVYASRANCVQRRGRVGRTRPGMCIRLYSKKHFQSLHDFQTPEMLRTHLDSLCLQILALDLGDPADFLQQALEPPSSDHIEAAMKRLHELGATTSTRQLTPLGLRLSRLPVAPKVGKMVIMGAILRCLDSALTIAGVSDTDVFISTREHREAVRLHKEDLSYGTQSDVIASVNAFNFWVTSHYAKTPAEVVYDLQERMLSVPQLLTVSKYKQQFFEIVAGSGFIHMKQNYKDAKNKDRADIFVDQSEYSADSLNVGLVKCVVASGLFPNVVMNRGKRLMRNKLANRLDPSSASVVHRTSQENIGQPYFVYDELVKSSESERLLVRDLTNVSLWTILLMGTSSMPVTYRDDLNLAVVDEWIMFRATFGTLELIRKFKRALNVCLGRKFMNPNDEENNAKLEELRCIIKELVCTPFKPNDLAEKPWEEKGVIIEPCTEPKGGSSEAEKTHVNSSHTPTTSAEAGGDS
chain 2: CHHPLRIPSVQLAAPRSHTHEDIAYASCPACSRVVHMCDMLTHLITAHRELDQTHCRKMCTERLALYERVIGVPLKKSELTSSGRRVLDFLPTVLPTGYMCNWCDRRSDVYATRDKFLKHVADVHTDIDLEEVEPHVPLPPRGVVVEKSNGDGGPQPTRRLNGVVAVAEKSEPINAVPRILGISLPRGVDRPLKATAQFSDTEFPCELCNRTFNSEIDLLQHLETRHPDGTAEGPAGVDSAAIADVAQFSAKEATTGGDQRVHVICDLCVSSSKVYKMPSALFSHIRFKHPNEDAAFHVERLIREQKTVSSFVCTVCQKAFASAAALDGHFNSKHAEQGEAQNVVGRVTANNCWWCHDCEKGFSSAKGLHGHMQNKHGLSSQTHPCPACKRVFADIYSLEEHLSLQHKTIRLSDIGLLTHVKCSTCERFFLSHEDLHRHAVKHHKKDPRAPAQPFEAPTSASHVAASTSAAVPSEVEATASPQGPRKVKKRKKTTEVSEVTS

Variants of: B1
Experiment: IgG pulldown of TAP-tagged REH2, western blot quantification; parent: 1; read off a plot

Variant | ratio to parent
chain 1 R1993A | ~0.92
chain 1 R1949A | ~1.1
chain 1 K1048A, chain 1 A1056D | ~1
chain 1 H1968E | ~0.97
